Experimental data: US20250361274A1, “PEPTIDE AND PEPTIDE-CONTAINING AGENT” (PEPTIDREAM INC., priority 2022, published 2025)
Numbered stars: 1 amine (or outer) side, 2 acyl side, 3 side chain; on linkers, the order of the positions; unused ones are H or OH. Bridge positions count the residues as written; N and C are the ends. Square brackets hold non-standard residues; d marks the D form. Side chains are listed from the residue outwards. Ends that are not written are not given here. Peptide text beside a SMILES is read from it. * marks the point of attachment. KCOpipzaa = N6-(4-(carboxymethyl)piperazine-1-carbonyl)-L-lysine, O=C(NCCCC[C@H](N[*:1])C(=O)[*:2])N1CCN(CC(=O)[*:3])CC1; pBph2F = (S)-2-amino-3-(2-fluoro-[1,1'-biphenyl]-4-yl)propanoic acid, O=C([C@H](Cc1ccc(-c2ccccc2)c(F)c1)N[*:1])[*:2]; 3Pal(6-Ph) = N[C@@H](Cc1ccc(-c2ccccc2)nc1)C(=O)O; Phe(4-COOH) = N[C@@H](Cc1ccc(C(=O)O)cc1)C(=O)O; Piperazinyl(4-CH2COOH) = O=C(O)CN1CCN(*)CC1; Pro(trans-4-F) = O=C(O)[C@@H]1C[C@@H](F)CN1; Bip = N[C@@H](Cc1ccc(-c2ccccc2)cc1)C(=O)O; Phe(4-F) = N[C@@H](Cc1ccc(F)cc1)C(=O)O; hTyr = N[C@@H](CCc1ccc(O)cc1)C(=O)O; Hyp = O=C(O)[C@@H]1C[C@@H](O)CN1; NMeF = CN[C@@H](Cc1ccccc1)C(=O)O; Cha = N[C@@H](CC1CCCCC1)C(=O)O; CO = O=C([*:1])[*:2]; βAla = NCCC(=O)O

What was measured:
BMP4 = target: T1, BMP4 (Homo sapiens, UniProt P12644); assay: BMP4 signal transduction inhibitory activity: SMAD1 phosphorylation by BMP4 stimulus, AlphaLISA SureFire, A549 cells; type: cell-based; settings: for aLISA BMP4: inhibition of SMAD1 phosphorylation by BMP4 stimulus, A549 cells
T1 sequence (P12644 293-408): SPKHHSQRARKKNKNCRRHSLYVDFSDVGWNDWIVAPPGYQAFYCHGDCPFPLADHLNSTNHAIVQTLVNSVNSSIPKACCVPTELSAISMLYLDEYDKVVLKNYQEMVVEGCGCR

BMP7 = target: T2, BMP7 (Homo sapiens, UniProt P18075); assay: BMP7 signal transduction inhibitory activity: SMAD1 phosphorylation by BMP7 stimulus, A549 cells; type: cell-based; settings: for aLISA BMP7: inhibition of SMAD1 phosphorylation by BMP7 stimulus, A549 cells
T2 sequence (P18075 293-431): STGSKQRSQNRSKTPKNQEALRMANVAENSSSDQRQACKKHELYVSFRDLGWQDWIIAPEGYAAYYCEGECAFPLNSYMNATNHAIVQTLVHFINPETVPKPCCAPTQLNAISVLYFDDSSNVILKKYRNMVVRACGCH
Summary of the method: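 SMAD1 phosphorylation readout in A549 cells stimulated with BMP7 (10 nM). Peptides were tested at three levels (e.g. 1/10/100, 10/100/1,000, 100/300/1,000, 10/30/90 nM) or at eight points, 1/3 steps, from 100 or 1,000 nM. Recombinant Noggin served as positive control at matching concentrations.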

[1] = AlphaLISA, class by peptide concentration zone

Question: Which “aLISA BMP4” value (BMP4; peptides of Synthesis 2, classes A-C, ND) does the source give for “110 ({CH2CO}-ERVYVDR[Bip]PY[Pro(trans-4-F)][Bip]Y[Phe(4-COOH)][Phe(4-COOH)]SC[βAla][dE]-OH; thioether N-17; not fully specified) [compound 110]” here?
Answer: A (showed an inhibitory activity of 50% or more in a zone to which the peptide was added to in an amount of 0.2 nM)

Question: And the “aLISA BMP7” value (BMP7; peptides of Synthesis 2, classes A-D, ND)?
Answer: B (showed less than 50% of inhibitory activity in 1 nM-addition zone and showed 50% or more of inhibitory activity in 10 nM-addition zone)

Question: Which results are given for “254 (ERVYVSR[3Pal(6-Ph)]S[hTyr]V[Bip]Y[Phe(4-COOH)][Phe(4-COOH)]SCG-NH2; not fully specified) [compound 254]”?
Answer: aLIZA BMP4 (0.2 nM) % Inh (BMP4; SMAD1 phosphorylation by BMP4 stimulus, peptide conc. in assay 0.02, 0.2, 2 nM, class symbols): C (showed less than 30% of inhibitory activity in 0.2 nM-addition zone and showed 30% or more of inhibitory activity in 2 nM-addition zone); aLIZA BMP7 (10 nM) % Inh (BMP7; SMAD1 phosphorylation by BMP7 stimulus, peptide conc. in assay 10, 100, 1000 nM, class symbols): ND (the inhibitory activity was less than 30% at the maximum concentration evaluated)

Question: For “65 (Ac-E[KCOpipzaa]VYVDR[Bip]PYP[Bip][Phe(4-F)][Phe(4-COOH)][Phe(4-COOH)]SCG-NH2; thioether (positions not given here); not fully specified (bridges)) [compound 65]”, which “aLISA BMP4” value (BMP4; [1]) is on record?
Answer: A (showed an inhibitory activity of 50% or more in a zone to which the peptide was added to in an amount of 0.2 nM)

Question: What about the “aLISA BMP7” value (BMP7; [1]) of the same compound?
Answer: C (showed less than 50% of inhibitory activity in 10 nM-addition zone and showed 50% or more of inhibitory activity in 100 nM-addition zone)

Question: Which results are given for “143 ({CH2CO}-ERVYVDR[Bip]PYY[Bip]Y[Phe(4-COOH)][Phe(4-COOH)]SCG-NH2; thioether N-17; not fully specified) [compound 143]”?
Answer: aLISA BMP4 (BMP4; peptides of Synthesis 1, classes D-F, ND): D (showed 50% or more of inhibitory activity in 0.2 nM-addition zone); aLISA BMP7 (BMP7; peptides of Synthesis 1, classes E, F, ND): E (showed 50% or more of inhibitory activity in a zone to which the peptide was added in an amount of 10 nM)

Question: Which IC50 (BMP4; Table 2-2, 277 from 20 nM (1/3), 417 from 300 nM (1/4), ND = IC50 was not calculated) does the source give for `CC(C)[C@@H]1NC(=O)[C@H](Cc2ccc(C(=O)O)cc2)NC(=O)[C@H](C(C)C)NC(=O)[C@H](CCCNC(=N)N)NC(=O)[C@H](CCC(=O)O)NC(=O)CSC[C@@H](C(=O)NCC(N)=O)NC(=O)[C@H](CO)NC(=O)[C@H](Cc2ccc(C(=O)O)cc2)NC(=O)[C@H](Cc2ccc(C(=O)O)cc2)NC(=O)[C@H](Cc2ccc(O)cc2)NC(=O)[C@H](Cc2ccc(-c3ccccc3)cc2)NC(=O)[C@@H]2C[C@@H](O)CN2C(=O)[C@H](Cc2ccc(O)cc2)NC(=O)[C@H](CCCCNC(=O)N2CCN(CC(=O)O)CC2)NC(=O)[C@H](Cc2ccc(-c3ccccc3)nc2)NC(=O)[C@H](CCCNC(=N)N)NC(=O)[C@H](CCCCNC(=O)N2CCN(CC(=O)O)CC2)NC1=O` [Peptide 277] ({CH2CO}-ERV[Phe(4-COOH)]VK([CO-Piperazinyl(4-CH2COOH)])R[3Pal(6-Ph)]K([CO-Piperazinyl(4-CH2COOH)])Y[Hyp][Bip]Y[Phe(4-COOH)][Phe(4-COOH)]SCG-NH2; thioether N-17) here?
Answer: 0.073 nM

Question: And the IC50 (BMP7; Table 2-2, 277 from 1,000 nM (1/3), 417 from 300 nM (1/4))?
Answer: 455 nM

Question: Which “aLIZA BMP4 (0.2 nM) % inh” value (BMP4; BMP4 0.2 nM stimulus, peptide conc. in assay 0.02, 0.2, 2 nM, class symbols) does the source give for “302 (ERV[Phe(4-COOH)]V[KCOpipzaa]R[3Pal(6-Ph)][KCOpipzaa]Y[Hyp][pBph2F]Y[Phe(4-COOH)][Phe(4-COOH)]SCG-NH2; not fully specified (N-terminus, bridges); also: cyclic peptide, ring closure not given here) [compound 302]” here?
Answer: C (showed less than 30% of inhibitory activity in 0.2 nM-addition zone and showed 30% or more of inhibitory activity in 2 nM-addition zone)

Question: What about the “aLIZA BMP7 (10 nM) % inh” value (BMP7; BMP7 10 nM stimulus, peptide conc. in assay 10, 100, 1000 nM, class symbols) of the same compound?
Answer: E (showed less than 30% of inhibitory activity in 100 nM-addition zone and showed 30% or more of inhibitory activity in 1,000 nM-addition zone)

Question: “405 (FG[NMeF]G[Bip]GDE[Cha]Q[NMeF]L[Phe(4-COOH)]CG; not fully specified) [compound 405]” was tested. Which “aLISA BMP4 (0.2 nM) % inh” value (BMP4; BMP4 0.2 nM stimulus, peptide conc. in assay 0.2, 2, 20 nM) did it give?
Answer: ND (the inhibitory activity was less than 30% at the maximum concentration evaluated)

Question: What about the “aLISA BMP7 (10 nM) % inh” value (BMP7; BMP7 10 nM stimulus, peptide conc. in assay 1, 10, 100 nM) of the same compound?
Answer: D (showed less than 30% of inhibitory activity in 10 nM-addition zone and showed 30% or more of inhibitory activity in 100 nM-addition zone)
